{"source": "patent US4497799A", "about": "“Polypeptide carcinostatic agent” (Suntory Ltd., priority 1981, dated 1985)", "format_in_all_cases": "in vivo", "key": {"[1]": {"assay": "Acute toxicity in the mouse, ICR", "description": "(§1) Animal: mouse (ICR, Swiss Albino and BDF1)\n(§2) ICR (female, average body weight 25.0 g, age 5-6 weeks), Swiss Albino (female, average body weight 22.3 g, 5-6 weeks) and BDF1 (female, average body weight 21.5, 6 weeks) were divided into 6 groups consisting of 6 mice each, and predetermined amounts of SPH dissolved in 0.2 ml of physiological saline were administered intraperitoneally."}, "[2]": {"assay": "Acute toxicity in the mouse, Swiss Albino", "description": "as §1, §2"}, "[3]": {"assay": "Acute toxicity in the mouse, BDF1", "description": "as §1, §2"}, "[4]": {"assay": "Acute toxicity in the mouse, overall statement", "description": "as §1, §2\nBecause the long term toxicity of SPH is low, the condition of the survival mice after recovery is similar to that of the control."}}, "note": "Bridges are numbered along the chain shown (N, C = ends). Where no end group is shown, it is not given here."}
{"sequence": "KSCCRSTLGRNCYNLCRVRGAQKLCAGVCRCKLTSSGKCPTGFPK (disulfide 3-39, 4-31, 12-29, 16-25) [SPH]", "values": [{"measurement": "No. died (numerator)", "setting": "[1]; 0.68 mg/Kg i.p.", "value": "0/6"}, {"measurement": "No. died (numerator)", "setting": "[1]; 1.36 mg/Kg i.p.", "value": "1/6"}, {"measurement": "No. died (numerator)", "setting": "[1]; 2.04 mg/Kg i.p.", "value": "4/6"}, {"measurement": "No. died (numerator)", "setting": "[1]; 2.72 mg/Kg i.p.", "value": "6/6"}, {"measurement": "LD50", "setting": "[1]; i.p.", "value": 1.81, "unit": "mg/kg"}, {"measurement": "No. died (numerator)", "setting": "[2]; 0.50 mg/Kg i.p.", "value": "0/6"}, {"measurement": "No. died (numerator)", "setting": "[2]; 1.00 mg/Kg i.p.", "value": "1/6"}, {"measurement": "No. died (numerator)", "setting": "[2]; 1.50 mg/Kg i.p.", "value": "4/6"}, {"measurement": "No. died (numerator)", "setting": "[2]; 2.00 mg/Kg i.p.", "value": "6/6"}, {"measurement": "LD50", "setting": "[2]; i.p.", "value": 1.33, "unit": "mg/kg"}, {"measurement": "No. died (numerator)", "setting": "[3]; 1.00 mg/Kg i.p.", "value": "0/6"}, {"measurement": "No. died (numerator)", "setting": "[3]; 1.50 mg/Kg i.p.", "value": "2/6"}, {"measurement": "No. died (numerator)", "setting": "[3]; 2.00 mg/Kg i.p.", "value": "6/6"}, {"measurement": "No. died (numerator)", "setting": "[3]; 3.00 mg/Kg i.p.", "value": "6/6"}, {"measurement": "LD50", "setting": "[3]; i.p.", "value": 1.58, "unit": "mg/kg"}, {"measurement": "LD50", "setting": "[4]; mouse, i.p., overall from Table 3", "value": "about 1.5 mg/Kg"}, {"measurement": "long term toxicity", "setting": "[4]; surviving mice after recovery similar to control", "value": "low"}]}
